Measurements as given in PMC7203112, “Structural basis for the complex DNA binding behavior of the plant stem cell regulator WUSCHEL”.

Experiments:
[1] = biological target: T1, YFP-WUS-HD S36R (Arabidopsis thaliana, UniProt Q9SB92 34-103, S36R); experiment: MST; MST: 20 mM Tris-HCl pH 8.0, 75 mM NaCl, 10 mM MgCl2, 0.05% Tween-20, 20 C, 50 nM YFP-WUS; ITC: same without Tween, 20 C; EMSA: 10 mM Tris-HCl pH 8.0, 75 mM NaCl, 50 ug/ml poly(dI-dC), 1 mM EDTA, 1 mM DTT, 5% glycerol; conditions: protein: recombinant; tags: N-terminal His6-YFP, C-terminal StrepII; blunt
T1 sequence: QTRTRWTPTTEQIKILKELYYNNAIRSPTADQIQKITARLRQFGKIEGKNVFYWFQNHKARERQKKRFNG

[2] = biological target: T2, YFP-WUS-HD T35R (Arabidopsis thaliana, UniProt Q9SB92 34-103, T35R); experiment: as above; conditions: protein: recombinant; tags: N-terminal His6-YFP, C-terminal StrepII; blunt
T2 sequence: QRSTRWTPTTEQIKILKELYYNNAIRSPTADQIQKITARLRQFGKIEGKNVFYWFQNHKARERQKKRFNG

[3] = biological target: T3, YFP-WUS-HD R94K (Arabidopsis thaliana, UniProt Q9SB92 34-103, R94K); experiment: as above; conditions: protein: recombinant; tags: N-terminal His6-YFP, C-terminal StrepII; blunt
T3 sequence: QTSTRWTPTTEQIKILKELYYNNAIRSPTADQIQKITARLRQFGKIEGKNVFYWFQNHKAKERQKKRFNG

[4] = biological target: T4, YFP-WUS-HD (Arabidopsis thaliana, UniProt Q9SB92 34-103); experiment: as above; conditions: protein: recombinant; tags: N-terminal His6-YFP, C-terminal StrepII; blunt
T4 sequence: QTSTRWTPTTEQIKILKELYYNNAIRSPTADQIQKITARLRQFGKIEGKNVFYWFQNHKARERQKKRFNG

[5] = biological target: T5, YFP-WUS-HD I66A (Arabidopsis thaliana, UniProt Q9SB92 34-103, I66A); experiment: as above; conditions: protein: recombinant; tags: N-terminal His6-YFP, C-terminal StrepII; blunt
T5 sequence: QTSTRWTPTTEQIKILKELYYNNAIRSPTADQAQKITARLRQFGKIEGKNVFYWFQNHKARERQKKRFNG

[6] = biological target: T6, YFP-WUS-HD F101A (Arabidopsis thaliana, UniProt Q9SB92 34-103, F101A); experiment: as above; conditions: protein: recombinant; tags: N-terminal His6-YFP, C-terminal StrepII; blunt
T6 sequence: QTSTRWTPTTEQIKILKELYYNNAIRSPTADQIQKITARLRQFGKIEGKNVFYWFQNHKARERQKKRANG

[7] = biological target: T7, YFP-WUS-HD F85A (Arabidopsis thaliana, UniProt Q9SB92 34-103, F85A); experiment: as above; conditions: protein: recombinant; tags: N-terminal His6-YFP, C-terminal StrepII; blunt
T7 sequence: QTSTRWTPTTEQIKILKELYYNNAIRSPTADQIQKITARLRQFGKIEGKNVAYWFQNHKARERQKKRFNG

[8] = biological target: T8, WUS-HD (Arabidopsis thaliana, UniProt Q9SB92 34-103); experiment: ITC; first binding event (Kd,1), sequential model, 2:1; MST: 20 mM Tris-HCl pH 8.0, 75 mM NaCl, 10 mM MgCl2, 0.05% Tween-20, 20 C, 50 nM YFP-WUS; ITC: same without Tween, 20 C; EMSA: 10 mM Tris-HCl pH 8.0, 75 mM NaCl, 50 ug/ml poly(dI-dC), 1 mM EDTA, 1 mM DTT, 5% glycerol; conditions: protein: recombinant; tags: none after TEV cleavage (from His6-MBP); blunt
T8 sequence: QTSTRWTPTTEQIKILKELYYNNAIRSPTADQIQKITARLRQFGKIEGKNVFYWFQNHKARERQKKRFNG

[9] = biological target: T8, WUS-HD; experiment: crystal structure; 2.8 A; two or three HD per DNA; MST: 20 mM Tris-HCl pH 8.0, 75 mM NaCl, 10 mM MgCl2, 0.05% Tween-20, 20 C, 50 nM YFP-WUS; ITC: same without Tween, 20 C; EMSA: 10 mM Tris-HCl pH 8.0, 75 mM NaCl, 50 ug/ml poly(dI-dC), 1 mM EDTA, 1 mM DTT, 5% glycerol; conditions: protein: recombinant; tags: none after TEV cleavage (from His6-MBP); blunt
[10] = biological target: T8, WUS-HD; experiment: EMSA; MST: 20 mM Tris-HCl pH 8.0, 75 mM NaCl, 10 mM MgCl2, 0.05% Tween-20, 20 C, 50 nM YFP-WUS; ITC: same without Tween, 20 C; EMSA: 10 mM Tris-HCl pH 8.0, 75 mM NaCl, 50 ug/ml poly(dI-dC), 1 mM EDTA, 1 mM DTT, 5% glycerol; conditions: protein: recombinant; tags: none after TEV cleavage (from His6-MBP); label: Cy5; blunt
[11] = biological target: T8, WUS-HD; experiment: EMSA; shift slightly modified; MST: 20 mM Tris-HCl pH 8.0, 75 mM NaCl, 10 mM MgCl2, 0.05% Tween-20, 20 C, 50 nM YFP-WUS; ITC: same without Tween, 20 C; EMSA: 10 mM Tris-HCl pH 8.0, 75 mM NaCl, 50 ug/ml poly(dI-dC), 1 mM EDTA, 1 mM DTT, 5% glycerol; conditions: protein: recombinant; tags: none after TEV cleavage (from His6-MBP); label: Cy5; blunt
[12] = biological target: T9, MBP-WUS-FL (Arabidopsis thaliana, UniProt Q9SB92 1-292); experiment: EMSA; MST: 20 mM Tris-HCl pH 8.0, 75 mM NaCl, 10 mM MgCl2, 0.05% Tween-20, 20 C, 50 nM YFP-WUS; ITC: same without Tween, 20 C; EMSA: 10 mM Tris-HCl pH 8.0, 75 mM NaCl, 50 ug/ml poly(dI-dC), 1 mM EDTA, 1 mM DTT, 5% glycerol; conditions: protein: recombinant; tags: N-terminal His6-MBP; chain copies: 2; label: Cy5; blunt
T9 sequence: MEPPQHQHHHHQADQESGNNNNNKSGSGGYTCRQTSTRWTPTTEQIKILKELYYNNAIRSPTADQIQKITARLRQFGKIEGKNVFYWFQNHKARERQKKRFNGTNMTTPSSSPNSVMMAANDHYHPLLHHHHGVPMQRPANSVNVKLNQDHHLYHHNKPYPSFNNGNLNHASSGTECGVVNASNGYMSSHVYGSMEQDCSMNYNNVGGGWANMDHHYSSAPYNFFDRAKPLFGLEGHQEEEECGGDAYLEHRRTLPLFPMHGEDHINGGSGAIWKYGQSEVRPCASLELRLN

B1: TGAA 16-bp (dsDNA)
DNA 1: AGTGTATGAATGAACG
DNA 2: CGTTCATTCATACACT
Kd [1]: 0.32 ± 0.03 µM | Kd [2]: 0.54 ± 0.07 µM | Kd [3]: 11 ± 1.62 µM | Kd [4]: 0.27 ± 0.03 µM

B2: G-Box 16-bp (dsDNA)
DNA 1: GTCGTCACGTGATGGG
DNA 2: CCCATCACGTGACGAC
Kd [4]: 3.78 ± 0.42 µM

B3: 2xTGAA (dsDNA)
DNA 1: CGCCTGAATGAACGCC
DNA 2: GGCGTTCATTCAGGCG
Kd [5]: 8.2 ± 0.84 µM | Kd [6]: 0.8 ± 0.12 µM | Kd [4]: 0.3 ± 0.04 µM | Kd [7]: 6.81 ± 0.87 µM | Kd [8]: 1.24 ± 0.14 µM

B4: 1xTGAA (dsDNA)
DNA 1: CGCCGGTGAAGCCGCC
DNA 2: GGCGGCTTCACCGGCG
Kd [4]: 10.5 ± 2.3 µM

B5: TGAA Head-to-Head (dsDNA)
DNA 1: CGCCTTCATGAACGCC
DNA 2: GGCGTTCATGAAGGCG
Kd [4]: 3.17 ± 0.35 µM

B6: TGAA Tail-to-Tail (dsDNA)
DNA 1: CGCCTGAATTCACGCC
DNA 2: GGCGTGAATTCAGGCG
Kd [4]: 1.9 ± 0.2 µM

B7: 2xTGAA 1xSpacing (dsDNA)
DNA 1: CGCTGAACTGAACGCC
DNA 2: GGCGTTCAGTTCAGCG
Kd [4]: 2.21 ± 0.25 µM

B8: 3xTGAA 1xSpacing (dsDNA)
DNA 1: CTGAACTGAACTGAAC
DNA 2: GTTCAGTTCAGTTCAG
Kd [4]: 0.84 ± 0.12 µM

B9: 2xTGAA 4xSpacing (dsDNA)
DNA 1: CGTGAAGCGCTGAACC
DNA 2: GGTTCAGCGCTTCACG
Kd [4]: 3.58 ± 0.44 µM

B10: TAAT 16-bp (dsDNA)
DNA 1: GTGTTAATGGGTTGTG
DNA 2: CACAACCCATTAACAC
Kd [1]: 1.67 ± 0.17 µM | Kd [2]: 1.67 ± 0.2 µM | Kd [3]: 4.59 ± 0.58 µM | binding result [9]: binds

B11: f_TAAT wt 16-bp (dsDNA)
DNA 1: GTGTTAATGGGTTGTG
DNA 2: CACAACCCATTAACAC
binding result [10]: binds

B12: f_TAAT T12C (dsDNA)
DNA 1: GTGTTAATGGGCTGTG
DNA 2: CACAGCCCATTAACAC
binding result [10]: binds

B13: f_TAAT T12C,T15C (dsDNA)
DNA 1: GTGTTAATGGGCTGCG
DNA 2: CGCAGCCCATTAACAC
binding result [11]: binds

B14: f_G-Box (dsDNA)
DNA 1: CATCGTCGTCACGTGATGGG
DNA 2: CCCATCACGTGACGACGATG
Kd [12]: 1.68 ± 0.3 µM

B15: 3xTGAA (dsDNA)
DNA 1: CGTGAATGAATGAACC
DNA 2: GGTTCATTCATTCACG
Kd [4]: 0.06 ± 0.01 µM

B16: 3xTGAT (dsDNA)
DNA 1: CGTGATTGATTGATCC
DNA 2: GGATCAATCAATCACG
Kd [4]: 0.12 ± 0.01 µM

B17: 3xTGAC (dsDNA)
DNA 1: CGTGACTGACTGACCC
DNA 2: GGGTCAGTCAGTCACG
Kd [4]: 0.39 ± 0.05 µM

B18: 3xTGAG (dsDNA)
DNA 1: CGTGAGTGAGTGAGCC
DNA 2: GGCTCACTCACTCACG
Kd [4]: 1.42 ± 0.17 µM
